Source: the supplement of paper PMC10567573

B1: DUSP5 (parent)
chain: YSEYPECCVDVKPISQEKIESERA

Variants of: B1
Assay: protein stability index of a GFP-peptide fusion (GPS, HEK-293T) (PSI 1-6); higher = more stable
Conditions: c terminus: a fixed tail appended
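Note: lentivirally expressed fusions sorted by FACS into six bins by GFP to DsRed ratio, PSI derived from sequencing read proportions per bin multiplied by bin number.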

First: YSEYPECCVDVKPISQEGIESERA [K18G]
Second: YSEYPECCVDVKPISQELIESERA [K18L]
The protein stability index of the first is lower: 3.39 for the first, 3.68 for the second.

First: YSEYPECCVDVKPISQECIESERA [K18C]
Second: YSEYPECCVDVKPISQEWIESERA [K18W]
The protein stability index of the first is lower: 3.1 for the first, 3.73 for the second.

First: YSEYPECCVDVKPISQEPIESERA [K18P]
Second: YSEYPECCVDVKPISQEEIESERA [K18E]
The protein stability index of the first is lower: 3.84 for the first, 4.55 for the second.

Compared with YSEYPECCVDVKPISQEMIESERA [K18M], YSEYPECCVDVKPISQEAIESERA [K18A] is lower in protein stability index: 4.3 for the first, 4.17 for the second.

First: YSEYPECCVDVKPISQESIESERA [K18S]
Second: YSEYPECCVDVKPISQETIESERA [K18T]
The protein stability index of the first is lower: 3.98 for the first, 4.52 for the second.

First: YSEYPECCVDVKPISQEHIESERA [K18H]
Second: YSEYPECCVDVKPISQEVIESERA [K18V]
The protein stability index of the first is higher: 4.41 for the first, 4.16 for the second.

Compared with YSEYPECCVDVKPISQENIESERA [K18N], YSEYPECCVDVKPISQEQIESERA [K18Q] is higher in protein stability index: 4.19 for the first, 4.87 for the second.

Compared with YSEYPECCVDVKPISQEIIESERA [K18I], YSEYPECCVDVKPISQEKWESERA [I19W] is higher in protein stability index: 4.02 for the first, 4.24 for the second.

Compared with YSEYPECCVDVKPISQEKAESERA [I19A], YSEYPECCVDVKPISQEKTESERA [I19T] is lower in protein stability index: 4.65 for the first, 4.55 for the second.

First: YSEYPECCVDVKPISQEKYESERA [I19Y]
Second: YSEYPECCVDVKPISQEKFESERA [I19F]
The protein stability index of the first is lower: 3.1 for the first, 4.16 for the second.

First: YSEYPECCVDVKPISQEKEESERA [I19E]
Second: YSEYPECCVDVKPISQEKGESERA [I19G]
The protein stability index of the first is higher: 4.69 for the first, 4.34 for the second.

Going from YSEYPECCVDVKPISQEKHESERA [I19H] to YSEYPECCVDVKPISQEKMESERA [I19M], the protein stability index rises from 3.01 to 4.1.

First: YSEYPECCVDVKPISQEKVESERA [I19V]
Second: YSEYPECCVDVKPISQEKPESERA [I19P]
The protein stability index of the first is lower: 3.31 for the first, 4.02 for the second.

First: YSEYPECCVDVKPISQEKNESERA [I19N]
Second: YSEYPECCVDVKPISQEKKESERA [I19K]
The protein stability index of the first is lower: 4.61 for the first, 4.9 for the second.

Going from YSEYPECCVDVKPISQEKQESERA [I19Q] to YSEYPECCVDVKPISSEKIESERA [Q16S], the protein stability index falls from 4.95 to 3.85.

Going from YSEYPECCVDVKPISVEKIESERA [Q16V] to YSEYPECCVDVKPISWEKIESERA [Q16W], the protein stability index falls from 3.41 to 2.83.

Compared with YSEYPECCVDVKPISAEKIESERA [Q16A], YSEYPECCVDVKPISTEKIESERA [Q16T] is higher in protein stability index: 3.74 for the first, 4.03 for the second.

First: YSEYPECCVDVKPISPEKIESERA [Q16P]
Second: YSEYPECCVDVKPISREKIESERA [Q16R]
The protein stability index of the first is higher: 4.38 for the first, 4.34 for the second.

Compared with YSEYPECCVDVKPISNEKIESERA [Q16N], YSEYPECCVDVKPISMEKIESERA [Q16M] is lower in protein stability index: 4.59 for the first, 4.3 for the second.

First: YSEYPECCVDVKPISHEKIESERA [Q16H]
Second: YSEYPECCVDVKPISYEKIESERA [Q16Y]
The protein stability index of the first is higher: 3.99 for the first, 3.37 for the second.

First: YSEYPECCVDVKPISDEKIESERA [Q16D]
Second: YSEYPECCVDVKPISLEKIESERA [Q16L]
The protein stability index of the first is higher: 4.67 for the first, 4.19 for the second.

Compared with YSEYPECCVDVKPISGEKIESERA [Q16G], YSEYPECCVDVKPISKEKIESERA [Q16K] is lower in protein stability index: 4.06 for the first, 3.85 for the second.

Going from YSEYPECCVDVKPISIEKIESERA [Q16I] to YSEYPECCVDVKPISEEKIESERA [Q16E], the protein stability index rises from 3.9 to 4.33.

Going from YSEYPECCVDVKPISFEKIESERA [Q16F] to YSEYPECCVDVKPISQKKIESERA [E17K], the protein stability index falls from 3.58 to 3.21.

Going from YSEYPECCVDVKPISQCKIESERA [E17C] to YSEYPECCVDVKPISQWKIESERA [E17W], the protein stability index falls from 3.01 to 2.78.

Compared with YSEYPECCVDVKPISQYKIESERA [E17Y], YSEYPECCVDVKPISQRKIESERA [E17R] is lower in protein stability index: 3.1 for the first, 2.95 for the second.

Going from YSEYPECCVDVKPISQTKIESERA [E17T] to YSEYPECCVDVKPISQVKIESERA [E17V], the protein stability index falls from 3.89 to 2.86.

Going from YSEYPECCVDVKPISQQKIESERA [E17Q] to YSEYPECCVDVKPISQAKIESERA [E17A], the protein stability index rises from 3.97 to 4.41.

Compared with YSEYPECCVDVKPISQIKIESERA [E17I], YSEYPECCVDVKPISQDKIESERA [E17D] is higher in protein stability index: 3.17 for the first, 3.75 for the second.

Going from YSEYPECCVDVKPISQNKIESERA [E17N] to YSEYPECCVDVKPISQGKIESERA [E17G], the protein stability index rises from 3.61 to 3.86.

Going from YSEYPECCVDVKPISQMKIESERA [E17M] to YSEYPECCVDVKPISQPKIESERA [E17P], the protein stability index rises from 2.53 to 4.37.

First: YSEYPECCVDVKPISQSKIESERA [E17S]
Second: YSEYPECCVDVKPISQHKIESERA [E17H]
The protein stability index of the first is lower: 3.06 for the first, 3.82 for the second.

Going from YSEYPECCVDVKPISQFKIESERA [E17F] to YSEYPECCVDVKPISQEKILSERA [E20L], the protein stability index rises from 3.43 to 3.94.

Going from YSEYPECCVDVKPISQEKIQSERA [E20Q] to YSEYPECCVDVKPISQEKIFSERA [E20F], the protein stability index falls from 3.65 to 3.56.

Going from YSEYPECCVDVKPISQEKIVSERA [E20V] to YSEYPECCVDVKPISQEKISSERA [E20S], the protein stability index rises from 2.78 to 3.97.

First: YSEYPECCVDVKPISQEKIISERA [E20I]
Second: YSEYPECCVDVKPISQEKIWSERA [E20W]
The protein stability index of the first is higher: 3.49 for the first, 2.04 for the second.

Compared with YSEYPECCVDVKPISQEKIHSERA [E20H], YSEYPECCVDVKPISQEKIGSERA [E20G] is lower in protein stability index: 4 for the first, 3.67 for the second.

First: YSEYPECCVDVKPISQEKIKSERA [E20K]
Second: YSEYPECCVDVKPISQEKITSERA [E20T]
The protein stability index of the first is higher: 4.02 for the first, 3.59 for the second.

Compared with YSEYPECCVDVKPISQEKIRSERA [E20R], YSEYPECCVDVKPISQEKIYSERA [E20Y] is higher in protein stability index: 3.56 for the first, 4.1 for the second.

Going from YSEYPECCVDVKPISQEKIPSERA [E20P] to YSEYPECCVDVKPISQEKIASERA [E20A], the protein stability index rises from 3.78 to 4.89.

Going from YSEYPECCVDVKPISQEKICSERA [E20C] to YSEYPECCVDVKPISQEKINSERA [E20N], the protein stability index falls from 4.31 to 3.6.

Going from YSEYPECCVDVKPISQEKIMSERA [E20M] to YSEYPECCVDVKPISQEKIDSERA [E20D], the protein stability index rises from 2.8 to 4.28.

First: YSEYPECCVDVKPISQEKIESCRA [E22C]
Second: YSEYPECCVDVKPISQEKIESFRA [E22F]
The protein stability index of the first is lower: 3.51 for the first, 3.6 for the second.

First: YSEYPECCVDVKPISQEKIESKRA [E22K]
Second: YSEYPECCVDVKPISQEKIESMRA [E22M]
The protein stability index of the first is lower: 3.43 for the first, 3.65 for the second.

First: YSEYPECCVDVKPISQEKIESLRA [E22L]
Second: YSEYPECCVDVKPISQEKIESQRA [E22Q]
The protein stability index of the first is lower: 2.27 for the first, 3.54 for the second.

First: YSEYPECCVDVKPISQEKIESIRA [E22I]
Second: YSEYPECCVDVKPISQEKIESYRA [E22Y]
The protein stability index of the first is higher: 3.54 for the first, 2.58 for the second.

Going from YSEYPECCVDVKPISQEKIESVRA [E22V] to YSEYPECCVDVKPISQEKIESSRA [E22S], the protein stability index rises from 3.05 to 3.56.
